Laboratory results reported in the supplement of paper PMC11908140.

B1: library; numbered along this chain (parent)
chain: MRKPRAAVGSGHRKQAASQEGRQKHAKNNSQAKPSACDGLARQPEEVVLQASVSSYHLFRDVAEVTAFRGSLLSWYDQEKRDLPWRRRAEDEMDLDRRAYAVWVSEVMLQQTQVATVINYYTGWMQKWPTLQDLASASLEEVNQLWAGLGYYSRGRRLQEGARKVVEELGGHMPRTAETLQQLLPGVGRYTAGAIASIAFGQATGVVDGNVARVLCRVRAIGADPSSTLVSQQLWGLAQQLVDPARPGDFNQAAMELGATVCTPQRPLCSQCPVESLCRARQRVEQEQLLASGSLSGSPDVEECAPNTGQCHLCLPPSEPWDQTLGVVNFPRKASRKPPREESSATCVLEQPGALGAQILLVQRPNSGLLAGLWEFPSVTWEPSEQLQRKALLQELQRWAGPLPATHLRHLGEVVHTFSHIKLTYQVYGLALEGQTPVTTVPPGARWLTQEEFHTAAVSTAMKKVFRVYQGQQPGTCMGSKRSQVSSPCSRKKPRMGQQVLDNFFRSHISTDAHSLNSAAQ

Variants of: B1
Test: 8OG:A repair function score (normalized; synonymous = 0, nonsense = -1) (normalized log-likelihood score); higher = more repair activity (WT-like)
Settings: with 8OG:A DNA repair reporter (GFP) in HEK-293 MUTYH KO cells
How it was run: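 MUTYH knockout HEK-293 cells carrying lentiviral MUTYH cDNA NNN codon-scan libraries were grown with 10 pg/ml doxycycline and co-transfected with mCherry and a GFP reporter of 8OG:A repair. Viable mCherry+ cells were sorted at 72 h into GFP+ (repair) and GFP− bins, with three replicates per tile, and tile amplicons were sequenced. Rosace fitness scores for each tile were turned into a normalized repair function score anchored on the synonymous and nonsense distributions. Synonymous medians were set to 0 and nonsense medians to -1, and variants below 300 counts per million at the start were dropped.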

In order of falling “8OG:A repair function score” value:
1. MRKPRAAVGSGHRKQAASQEGRQKHAKNNSQAKPSACDGLARQPEEVVLQASVSSYHLFRDVAEVTAFRGSLLSWYDQEKRDLPWRRRAEDEMDLDRRAYAVWVSEVMLQQTQVATVINYYTGWMQKWPTLQDLASASLEEVNQLWAGLGYYSRGRRLQEGARKVVEELGGHMPRTAETLQQLLPGVGRYTAGAIASIAFGQATGVVDGNVARVLCRVRAIGADPSSTLVSQQLWGLAQQLVDPARPGDFNQAAMELGATVCTPQRPLCSQCPVESLCRARQRVEQEQLLASGSLSGSPDVEECAPNTGQCHLCLPPSEPWDQTLGVVNFPRKASRKPPREESSATCVLEQPGALGAQILLVQRPNSGLLAGLWEFPSVFWEPSEQLQRKALLQELQRWAGPLPATHLRHLGEVVHTFSHIKLTYQVYGLALEGQTPVTTVPPGARWLTQEEFHTAAVSTAMKKVFRVYQGQQPGTCMGSKRSQVSSPCSRKKPRMGQQVLDNFFRSHISTDAHSLNSAAQ [T380F]  0.194
2. MRKPRAAVGSGHRKQAASQEGRQKHAKNNSQAKPSACDGLARQPEEVVLQASVSSYHLFRDVAEVTAFRGSLLSWYDQEKRDLPWRRRAEDEMDLDRRAYAVWVSEVMLQQTQVATVINYYTGWMQKWPTLQDLASASLEEVNQLWAGLGYYSRGRRLQEGARKVVEELGGHMPRTAETLQQLLPGVGRYTAGAIASIAFGQATGVVDGNVARVLCRVRAIGADPSSTLVSQQLWGLAQQLVDPARPGDFNQAAMELGATVCTPQRPLCSQCPVESLCRARQRVEQEQLLASGSLSGSPDVEECAPNTGQCHLCLPPSEPWDQTLGVVNFPRKASRKPPREESSATCVLEQPGALGAQILLVQRPNSGLLAGLWEFPSVGWEPSEQLQRKALLQELQRWAGPLPATHLRHLGEVVHTFSHIKLTYQVYGLALEGQTPVTTVPPGARWLTQEEFHTAAVSTAMKKVFRVYQGQQPGTCMGSKRSQVSSPCSRKKPRMGQQVLDNFFRSHISTDAHSLNSAAQ [T380G]  0.0924
3. MRKPRAAVGSGHRKQAASQEGRQKHAKNNSQAKPSACDGLARQPEEVVLQASVSSYHLFRDVAEVTAFRGSLLSWYDQEKRDLPWRRRAEDEMDLDRRAYAVWVSEVMLQQTQVATVINYYTGWMQKWPTLQDLASASLEEVNQLWAGLGYYSRGRRLQEGARKVVEELGGHMPRTAETLQQLLPGVGRYTAGAIASIAFGQATGVVDGNVARVLCRVRAIGADPSSTLVSQQLWGLAQQLVDPARPGDFNQAAMELGATVCTPQRPLCSQCPVESLCRARQRVEQEQLLASGSLSGSPDVEECAPNTGQCHLCLPPSEPWDQTLGVVNFPRKASRKPPREESSATCVLEQPGALGAQILLVQRPNSGLLAGLWEFPSVDWEPSEQLQRKALLQELQRWAGPLPATHLRHLGEVVHTFSHIKLTYQVYGLALEGQTPVTTVPPGARWLTQEEFHTAAVSTAMKKVFRVYQGQQPGTCMGSKRSQVSSPCSRKKPRMGQQVLDNFFRSHISTDAHSLNSAAQ [T380D]  0.0495
4. MRKPRAAVGSGHRKQAASQEGRQKHAKNNSQAKPSACDGLARQPEEVVLQASVSSYHLFRDVAEVTAFRGSLLSWYDQEKRDLPWRRRAEDEMDLDRRAYAVWVSEVMLQQTQVATVINYYTGWMQKWPTLQDLASASLEEVNQLWAGLGYYSRGRRLQEGARKVVEELGGHMPRTAETLQQLLPGVGRYTAGAIASIAFGQATGVVDGNVARVLCRVRAIGADPSSTLVSQQLWGLAQQLVDPARPGDFNQAAMELGATVCTPQRPLCSQCPVESLCRARQRVEQEQLLASGSLSGSPDVEECAPNTGQCHLCLPPSEPWDQTLGVVNFPRKASRKPPREESSATCVLEQPGALGAQILLVQRPNSGLLAGLWEFPSVAWEPSEQLQRKALLQELQRWAGPLPATHLRHLGEVVHTFSHIKLTYQVYGLALEGQTPVTTVPPGARWLTQEEFHTAAVSTAMKKVFRVYQGQQPGTCMGSKRSQVSSPCSRKKPRMGQQVLDNFFRSHISTDAHSLNSAAQ [T380A]  0.0285
5. MRKPRAAVGSGHRKQAASQEGRQKHAKNNSQAKPSACDGLARQPEEVVLQASVSSYHLFRDVAEVTAFRGSLLSWYDQEKRDLPWRRRAEDEMDLDRRAYAVWVSEVMLQQTQVATVINYYTGWMQKWPTLQDLASASLEEVNQLWAGLGYYSRGRRLQEGARKVVEELGGHMPRTAETLQQLLPGVGRYTAGAIASIAFGQATGVVDGNVARVLCRVRAIGADPSSTLVSQQLWGLAQQLVDPARPGDFNQAAMELGATVCTPQRPLCSQCPVESLCRARQRVEQEQLLASGSLSGSPDVEECAPNTGQCHLCLPPSEPWDQTLGVVNFPRKASRKPPREESSATCVLEQPGALGAQILLVQRPNSGLLAGLWEFPSVLWEPSEQLQRKALLQELQRWAGPLPATHLRHLGEVVHTFSHIKLTYQVYGLALEGQTPVTTVPPGARWLTQEEFHTAAVSTAMKKVFRVYQGQQPGTCMGSKRSQVSSPCSRKKPRMGQQVLDNFFRSHISTDAHSLNSAAQ [T380L]  -0.0431
6. MRKPRAAVGSGHRKQAASQEGRQKHAKNNSQAKPSACDGLARQPEEVVLQASVSSYHLFRDVAEVTAFRGSLLSWYDQEKRDLPWRRRAEDEMDLDRRAYAVWVSEVMLQQTQVATVINYYTGWMQKWPTLQDLASASLEEVNQLWAGLGYYSRGRRLQEGARKVVEELGGHMPRTAETLQQLLPGVGRYTAGAIASIAFGQATGVVDGNVARVLCRVRAIGADPSSTLVSQQLWGLAQQLVDPARPGDFNQAAMELGATVCTPQRPLCSQCPVESLCRARQRVEQEQLLASGSLSGSPDVEECAPNTGQCHLCLPPSEPWDQTLGVVNFPRKASRKPPREESSATCVLEQPGALGAQILLVQRPNSGLLAGLWEFPSVKWEPSEQLQRKALLQELQRWAGPLPATHLRHLGEVVHTFSHIKLTYQVYGLALEGQTPVTTVPPGARWLTQEEFHTAAVSTAMKKVFRVYQGQQPGTCMGSKRSQVSSPCSRKKPRMGQQVLDNFFRSHISTDAHSLNSAAQ [T380K]  -0.0484
7. MRKPRAAVGSGHRKQAASQEGRQKHAKNNSQAKPSACDGLARQPEEVVLQASVSSYHLFRDVAEVTAFRGSLLSWYDQEKRDLPWRRRAEDEMDLDRRAYAVWVSEVMLQQTQVATVINYYTGWMQKWPTLQDLASASLEEVNQLWAGLGYYSRGRRLQEGARKVVEELGGHMPRTAETLQQLLPGVGRYTAGAIASIAFGQATGVVDGNVARVLCRVRAIGADPSSTLVSQQLWGLAQQLVDPARPGDFNQAAMELGATVCTPQRPLCSQCPVESLCRARQRVEQEQLLASGSLSGSPDVEECAPNTGQCHLCLPPSEPWDQTLGVVNFPRKASRKPPREESSATCVLEQPGALGAQILLVQRPNSGLLAGLWEFPSVCWEPSEQLQRKALLQELQRWAGPLPATHLRHLGEVVHTFSHIKLTYQVYGLALEGQTPVTTVPPGARWLTQEEFHTAAVSTAMKKVFRVYQGQQPGTCMGSKRSQVSSPCSRKKPRMGQQVLDNFFRSHISTDAHSLNSAAQ [T380C]  -0.0502
8. MRKPRAAVGSGHRKQAASQEGRQKHAKNNSQAKPSACDGLARQPEEVVLQASVSSYHLFRDVAEVTAFRGSLLSWYDQEKRDLPWRRRAEDEMDLDRRAYAVWVSEVMLQQTQVATVINYYTGWMQKWPTLQDLASASLEEVNQLWAGLGYYSRGRRLQEGARKVVEELGGHMPRTAETLQQLLPGVGRYTAGAIASIAFGQATGVVDGNVARVLCRVRAIGADPSSTLVSQQLWGLAQQLVDPARPGDFNQAAMELGATVCTPQRPLCSQCPVESLCRARQRVEQEQLLASGSLSGSPDVEECAPNTGQCHLCLPPSEPWDQTLGVVNFPRKASRKPPREESSATCVLEQPGALGAQILLVQRPNSGLLAGLWEFPSVEWEPSEQLQRKALLQELQRWAGPLPATHLRHLGEVVHTFSHIKLTYQVYGLALEGQTPVTTVPPGARWLTQEEFHTAAVSTAMKKVFRVYQGQQPGTCMGSKRSQVSSPCSRKKPRMGQQVLDNFFRSHISTDAHSLNSAAQ [T380E]  -0.0632
9. MRKPRAAVGSGHRKQAASQEGRQKHAKNNSQAKPSACDGLARQPEEVVLQASVSSYHLFRDVAEVTAFRGSLLSWYDQEKRDLPWRRRAEDEMDLDRRAYAVWVSEVMLQQTQVATVINYYTGWMQKWPTLQDLASASLEEVNQLWAGLGYYSRGRRLQEGARKVVEELGGHMPRTAETLQQLLPGVGRYTAGAIASIAFGQATGVVDGNVARVLCRVRAIGADPSSTLVSQQLWGLAQQLVDPARPGDFNQAAMELGATVCTPQRPLCSQCPVESLCRARQRVEQEQLLASGSLSGSPDVEECAPNTGQCHLCLPPSEPWDQTLGVVNFPRKASRKPPREESSATCVLEQPGALGAQILLVQRPNSGLLAGLWEFPSVMWEPSEQLQRKALLQELQRWAGPLPATHLRHLGEVVHTFSHIKLTYQVYGLALEGQTPVTTVPPGARWLTQEEFHTAAVSTAMKKVFRVYQGQQPGTCMGSKRSQVSSPCSRKKPRMGQQVLDNFFRSHISTDAHSLNSAAQ [T380M]  -0.0793
10. MRKPRAAVGSGHRKQAASQEGRQKHAKNNSQAKPSACDGLARQPEEVVLQASVSSYHLFRDVAEVTAFRGSLLSWYDQEKRDLPWRRRAEDEMDLDRRAYAVWVSEVMLQQTQVATVINYYTGWMQKWPTLQDLASASLEEVNQLWAGLGYYSRGRRLQEGARKVVEELGGHMPRTAETLQQLLPGVGRYTAGAIASIAFGQATGVVDGNVARVLCRVRAIGADPSSTLVSQQLWGLAQQLVDPARPGDFNQAAMELGATVCTPQRPLCSQCPVESLCRARQRVEQEQLLASGSLSGSPDVEECAPNTGQCHLCLPPSEPWDQTLGVVNFPRKASRKPPREESSATCVLEQPGALGAQILLVQRPNSGLLAGLWEFPSVIWEPSEQLQRKALLQELQRWAGPLPATHLRHLGEVVHTFSHIKLTYQVYGLALEGQTPVTTVPPGARWLTQEEFHTAAVSTAMKKVFRVYQGQQPGTCMGSKRSQVSSPCSRKKPRMGQQVLDNFFRSHISTDAHSLNSAAQ [T380I]  -0.128
11. MRKPRAAVGSGHRKQAASQEGRQKHAKNNSQAKPSACDGLARQPEEVVLQASVSSYHLFRDVAEVTAFRGSLLSWYDQEKRDLPWRRRAEDEMDLDRRAYAVWVSEVMLQQTQVATVINYYTGWMQKWPTLQDLASASLEEVNQLWAGLGYYSRGRRLQEGARKVVEELGGHMPRTAETLQQLLPGVGRYTAGAIASIAFGQATGVVDGNVARVLCRVRAIGADPSSTLVSQQLWGLAQQLVDPARPGDFNQAAMELGATVCTPQRPLCSQCPVESLCRARQRVEQEQLLASGSLSGSPDVEECAPNTGQCHLCLPPSEPWDQTLGVVNFPRKASRKPPREESSATCVLEQPGALGAQILLVQRPNSGLLAGLWEFPSVNWEPSEQLQRKALLQELQRWAGPLPATHLRHLGEVVHTFSHIKLTYQVYGLALEGQTPVTTVPPGARWLTQEEFHTAAVSTAMKKVFRVYQGQQPGTCMGSKRSQVSSPCSRKKPRMGQQVLDNFFRSHISTDAHSLNSAAQ [T380N]  -0.171
12. MRKPRAAVGSGHRKQAASQEGRQKHAKNNSQAKPSACDGLARQPEEVVLQASVSSYHLFRDVAEVTAFRGSLLSWYDQEKRDLPWRRRAEDEMDLDRRAYAVWVSEVMLQQTQVATVINYYTGWMQKWPTLQDLASASLEEVNQLWAGLGYYSRGRRLQEGARKVVEELGGHMPRTAETLQQLLPGVGRYTAGAIASIAFGQATGVVDGNVARVLCRVRAIGADPSSTLVSQQLWGLAQQLVDPARPGDFNQAAMELGATVCTPQRPLCSQCPVESLCRARQRVEQEQLLASGSLSGSPDVEECAPNTGQCHLCLPPSEPWDQTLGVVNFPRKASRKPPREESSATCVLEQPGALGAQILLVQRPNSGLLAGLWEFPSVHWEPSEQLQRKALLQELQRWAGPLPATHLRHLGEVVHTFSHIKLTYQVYGLALEGQTPVTTVPPGARWLTQEEFHTAAVSTAMKKVFRVYQGQQPGTCMGSKRSQVSSPCSRKKPRMGQQVLDNFFRSHISTDAHSLNSAAQ [T380H]  -0.465
